According to the supplement of paper PMC10567573:

B1: CHIT1 (parent)
chain: CSWKGATKQRIQDQKVPYIFRDNQ

Variants of: B1
Assay: protein stability index of a GFP-peptide fusion (GPS, HEK-293T) (PSI 1-6); higher = more stable
Conditions: c terminus: a fixed tail appended
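Further: lentivirally expressed fusions sorted by FACS into six bins by GFP to DsRed ratio, PSI derived from sequencing read proportions per bin multiplied by bin number.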

In order of falling protein stability index:
1. CSWKGWTKQRIQDQKVPYIFRDNQ [A6W]  4.23
2. CSWKGAYKQRIQDQKVPYIFRDNQ [T7Y]  3.94
3. CSWKGATKQRIMDQKVPYIFRDNQ [Q12M]  3.82
4. CSWKGATKQRDQDQKVPYIFRDNQ [I11D]  3.74
5. CSWKGATKQRQQDQKVPYIFRDNQ [I11Q]  3.54
6. CSWKGDTKQRIQDQKVPYIFRDNQ [A6D]  3.47
7. CSWKGATKQRHQDQKVPYIFRDNQ [I11H]  3.42
8. CSWKGAEKQRIQDQKVPYIFRDNQ [T7E]  3.41
9. CSWKGATKQREQDQKVPYIFRDNQ [I11E]  3.33
10. CSWKGASKQRIQDQKVPYIFRDNQ [T7S]  3.32
11. CSWKGADKQRIQDQKVPYIFRDNQ [T7D]  3.29
12. CSWKGATKQRRQDQKVPYIFRDNQ [I11R]  3.15
13. CSWKGATKQRLQDQKVPYIFRDNQ [I11L]  3.14
14. CSWKGATKQRIDDQKVPYIFRDNQ [Q12D]  3.08
15. CSWKGPTKQRIQDQKVPYIFRDNQ [A6P]  3.05
16. CSWKGATKQRSQDQKVPYIFRDNQ [I11S]  3.01
17. CSWKGATKQRVQDQKVPYIFRDNQ [I11V]  2.98
18. CSWKGATKIRIQDQKVPYIFRDNQ [Q9I]  2.92
19. CSWKGAHKQRIQDQKVPYIFRDNQ [T7H]  2.91
20. CSWKGATKQRITDQKVPYIFRDNQ [Q12T]  2.9
21. CSWKGAQKQRIQDQKVPYIFRDNQ [T7Q]  2.89
22. CSWKGATKGRIQDQKVPYIFRDNQ [Q9G]  2.88
23. CSWKGATKQRAQDQKVPYIFRDNQ [I11A]  2.85
24. CSWKGNTKQRIQDQKVPYIFRDNQ [A6N]  2.83
25. CSWKGATKQRIQDDKVPYIFRDNQ [Q14D]  2.81
26. CSWKGATKTRIQDQKVPYIFRDNQ [Q9T]  2.8
27. CSWKGETKQRIQDQKVPYIFRDNQ [A6E]  2.79
28. CSWKGATKQRIPDQKVPYIFRDNQ [Q12P]  2.78
29. CSWKGAGKQRIQDQKVPYIFRDNQ [T7G]  2.77
30. CSWKGARKQRIQDQKVPYIFRDNQ [T7R]  2.75
31. CSWKGAPKQRIQDQKVPYIFRDNQ [T7P]  2.74
32. CSWKGRTKQRIQDQKVPYIFRDNQ [A6R]  2.73
33. CSWKGATKQRKQDQKVPYIFRDNQ [I11K]  2.69
34. CSWKGAFKQRIQDQKVPYIFRDNQ [T7F]  2.68
35. CSWKGATKQRIADQKVPYIFRDNQ [Q12A]  2.67
36. CSWKGATKQRTQDQKVPYIFRDNQ [I11T]  2.66
37. CSWKGATKHRIQDQKVPYIFRDNQ [Q9H]  2.66
38. CSWKGMTKQRIQDQKVPYIFRDNQ [A6M]  2.64
39. CSWKGANKQRIQDQKVPYIFRDNQ [T7N]  2.62
40. CSWKGATKNRIQDQKVPYIFRDNQ [Q9N]  2.62
41. CSWKGATKQRISDQKVPYIFRDNQ [Q12S]  2.6
42. CSWKGATKDRIQDQKVPYIFRDNQ [Q9D]  2.58
43. CSWKGATKSRIQDQKVPYIFRDNQ [Q9S]  2.57
44. CSWKGATKQRNQDQKVPYIFRDNQ [I11N]  2.56
45. CSWKGQTKQRIQDQKVPYIFRDNQ [A6Q]  2.54
46. CSWKGALKQRIQDQKVPYIFRDNQ [T7L]  2.52
47. CSWKGATKQRYQDQKVPYIFRDNQ [I11Y]  2.51
48. CSWKGAAKQRIQDQKVPYIFRDNQ [T7A]  2.51
49. CSWKGHTKQRIQDQKVPYIFRDNQ [A6H]  2.51
50. CSWKGATKQRMQDQKVPYIFRDNQ [I11M]  2.5
51. CSWKGATKARIQDQKVPYIFRDNQ [Q9A]  2.5
52. CSWKGATKQRIQDFKVPYIFRDNQ [Q14F]  2.47
53. CSWKGATKQRIEDQKVPYIFRDNQ [Q12E]  2.45
54. CSWKGATKQRFQDQKVPYIFRDNQ [I11F]  2.44
55. CSWKGATKVRIQDQKVPYIFRDNQ [Q9V]  2.44
56. CSWKGATKKRIQDQKVPYIFRDNQ [Q9K]  2.44
57. CSWKGLTKQRIQDQKVPYIFRDNQ [A6L]  2.43
58. CSWKGAVKQRIQDQKVPYIFRDNQ [T7V]  2.42
59. CSWKGATKERIQDQKVPYIFRDNQ [Q9E]  2.42
60. CSWKGAKKQRIQDQKVPYIFRDNQ [T7K]  2.4
61. CSWKGSTKQRIQDQKVPYIFRDNQ [A6S]  2.4
62. CSWKGATKQRIYDQKVPYIFRDNQ [Q12Y]  2.38
63. CSWKGATKRRIQDQKVPYIFRDNQ [Q9R]  2.37
64. CSWKGATKQRGQDQKVPYIFRDNQ [I11G]  2.32
65. CSWKGITKQRIQDQKVPYIFRDNQ [A6I]  2.32
66. CSWKGATKQRIGDQKVPYIFRDNQ [Q12G]  2.31
67. CSWKGYTKQRIQDQKVPYIFRDNQ [A6Y]  2.31
68. CSWKGATKQRCQDQKVPYIFRDNQ [I11C]  2.3
69. CSWKGAIKQRIQDQKVPYIFRDNQ [T7I]  2.3
70. CSWKGACKQRIQDQKVPYIFRDNQ [T7C]  2.29
71. CSWKGATKMRIQDQKVPYIFRDNQ [Q9M]  2.29
72. CSWKGAMKQRIQDQKVPYIFRDNQ [T7M]  2.28
73. CSWKGATKQRINDQKVPYIFRDNQ [Q12N]  2.28
74. CSWKGTTKQRIQDQKVPYIFRDNQ [A6T]  2.27
75. CSWKGVTKQRIQDQKVPYIFRDNQ [A6V]  2.25
76. CSWKGATKPRIQDQKVPYIFRDNQ [Q9P]  2.25
77. CSWKGKTKQRIQDQKVPYIFRDNQ [A6K]  2.23
78. CSWKGATKQRILDQKVPYIFRDNQ [Q12L]  2.18
79. CSWKGATKYRIQDQKVPYIFRDNQ [Q9Y]  2.17
80. CSWKGFTKQRIQDQKVPYIFRDNQ [A6F]  2.14
81. CSWKGATKQRPQDQKVPYIFRDNQ [I11P]  2.1
82. CSWKGATKQRIHDQKVPYIFRDNQ [Q12H]  2.09
83. CSWKGATKQRWQDQKVPYIFRDNQ [I11W]  2.07
84. CSWKGCTKQRIQDQKVPYIFRDNQ [A6C]  2.06
85. CSWKGATKQRIIDQKVPYIFRDNQ [Q12I]  2.02
86. CSWKGATKFRIQDQKVPYIFRDNQ [Q9F]  1.94
87. CSWKGATKQRIRDQKVPYIFRDNQ [Q12R]  1.83
88. CSWKGGTKQRIQDQKVPYIFRDNQ [A6G]  1.82
89. CSWKGATKLRIQDQKVPYIFRDNQ [Q9L]  1.78
90. CSWKGATKQRIFDQKVPYIFRDNQ [Q12F]  1.69
91. CSWKGATKWRIQDQKVPYIFRDNQ [Q9W]  1.39
92. CSWKGAWKQRIQDQKVPYIFRDNQ [T7W]  1.12
93. CSWKGATKQRIWDQKVPYIFRDNQ [Q12W]  1.12
94. CSWKGATKCRIQDQKVPYIFRDNQ [Q9C]  1.07
